Results on 46 molecules are retold here after patent US20220119492A1 (MEDIKINE, published 2022).

Bridge positions count the residues as written; N and C are the ends. Ends that are not written are not given here. Where only a bound is given, the exact number is not on record here.

Test [1] addresses T1, human IL-2Rβ (CD122 protein, Fc Tag) (27-239) (human, UniProt P14784 27-239).
T1 construct: range 27-239; Bought protein; also called hu-IL-2Rβ subunit; IL-2Rβ subunit; not shown: Fc tag of the bought protein
T1 sequence (looked up): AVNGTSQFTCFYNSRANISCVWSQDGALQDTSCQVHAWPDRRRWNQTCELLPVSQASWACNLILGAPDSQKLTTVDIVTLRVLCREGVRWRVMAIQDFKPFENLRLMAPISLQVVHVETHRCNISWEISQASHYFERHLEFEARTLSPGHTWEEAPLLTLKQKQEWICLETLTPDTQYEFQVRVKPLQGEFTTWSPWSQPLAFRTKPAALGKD
Put plainly: phage ELISA competition. Summed up: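 Values are IC50s derived from absorbance in a competitive binding ELISA, where a phage tracer competes with test ligands for human IL-2Rβ-Fc across a ligand dilution series. After 50 μL of phage tracer was added without washing for 45 min at 4° C, bound phage was detected with TMB for 1 to 15 min at 25° C. The reaction was then stopped and absorbance read at 450 nm.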
(In general: In an ELISA, binding on a coated surface is turned into a signal by an enzyme label.)

The target of test [2] is T1, human IL-2Rβ (CD122 protein, Fc Tag) …. Briefly: competition ELISA, peptide tracer. The protocol: (§1) Binding of Fc fusions to IL-2Rβ and IL-2Rγc were measured using a competition binding ELISA with biotinylated peptide/NeutrAvidin-HRP tracer. ELISA plate was prepared as described in Example 27.
(§2) The plate was washed 4 times with PT (1×PBS, 0.05% Tween® 20) buffer. Fifty (50) μL of IL-2R ligands serially diluted in PBT was added to appropriate wells then incubated at 4° C. for 1 hr.
(§3) At the appropriate time, the precomplexed bn-peptide/NA-HRP tracer was diluted to 2-fold its predetermined binding EC80 (typically 30 to 10 nM) without washing. fifty (50) μL of bn-peptide/NA-HRP tracer was added to each well and incubated at 4° C. for 45 mins.

For test [3], the target named is T2, cynomolgus monkey IL-2Rβ subunit (cynomolgus monkey).
T2 construct: Bought protein; also called cyno-IL-2Rβ subunit
T2 sequence (Q38J85 whole entry): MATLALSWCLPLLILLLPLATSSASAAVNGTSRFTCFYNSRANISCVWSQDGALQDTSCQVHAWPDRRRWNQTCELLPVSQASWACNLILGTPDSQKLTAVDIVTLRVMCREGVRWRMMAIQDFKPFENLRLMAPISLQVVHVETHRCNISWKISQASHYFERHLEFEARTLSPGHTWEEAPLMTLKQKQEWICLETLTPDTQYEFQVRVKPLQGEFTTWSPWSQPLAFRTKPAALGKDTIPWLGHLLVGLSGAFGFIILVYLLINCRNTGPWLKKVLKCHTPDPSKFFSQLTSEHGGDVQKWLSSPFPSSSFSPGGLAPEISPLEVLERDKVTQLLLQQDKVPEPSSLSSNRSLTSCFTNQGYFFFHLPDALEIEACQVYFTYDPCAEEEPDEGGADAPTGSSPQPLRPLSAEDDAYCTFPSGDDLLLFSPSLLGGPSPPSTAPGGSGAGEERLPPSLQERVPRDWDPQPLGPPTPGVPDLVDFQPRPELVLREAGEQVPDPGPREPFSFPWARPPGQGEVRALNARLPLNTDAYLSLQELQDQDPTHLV
Put plainly: competition ELISA, peptide tracer. The method, then: as §1, §2, §3

As usually defined, the IC50 is the concentration at which inhibition is half-maximal.

On to WYTCMMDWLGVHCELE [SEQ ID NO 2878], for which, in test [1], the IC50 is under 100 µM.

In the case of VDCFKVKVGELCDLFFGGG [SEQ ID NO 3127], the concentration for half-maximal inhibition (IC50) in test [2] and in test [3] was under 100 µM each time.

In the case of QMVWWDCWSTQEGPVCELNWTA [SEQ ID NO 2879], the IC50 in test [1] is under 100 µM.

In test [1], NWFHDCFLARVGDLCDLFLD (disulfide 6-15 (inferred)) [SEQ ID NO 2874] registered an IC50 of under 100 µM.

In turn, DGSWYTCWFTQLGEWCEQDDAK [SEQ ID NO 2882] showed an IC50 in test [1] of under 100 µM.

Take WYPCWGELCDLD [SEQ ID NO 2891]: the IC50 in test [1] is under 100 µM.

The molecule WPCWLGELCDLD [SEQ ID NO 2890] had an IC50 in test [1] of under 100 µM.

Consider LVDCFKVKVGELCDLFFGGG [SEQ ID NO 3126], for which the IC50 in test [2] and in test [3] was under 100 µM each time.

The molecule NWLPDCLFANVGELCDIFPW [SEQ ID NO 2872] showed an IC50 in test [1] of under 100 µM.

As to GGELLVDCFKVKVGELCDLF [SEQ ID NO 3122], the IC50 in test [2] and in test [3] was under 100 µM throughout.

Take WTCWLTQLGYDCNLDVVDQSLG [SEQ ID NO 2881]: the half-maximal inhibitory concentration (IC50) in test [1] is under 100 µM.

With LLVDCFKVKVGELCDLFFGGG [SEQ ID NO 3125], the IC50 in test [2] and in test [3] was under 100 µM each time.

In the case of LVDCFKVKVGELCDLF (disulfide 4-13 (inferred)) [SEQ ID NO 2886], the IC50 in test [1] is under 100 µM.

As to GGRYVHDCFIAQVGDLCDLFLHGG [SEQ ID NO 3147], the IC50 in test [2] and in test [3] was under 100 µM in each case.

For GGRYVHDCFIAQAGDLCDLFLHGG [SEQ ID NO 3173], the IC50 in test [2] and in test [3] was under 100 µM throughout.

As to GGRYVHDCFIAQVADLCDLFLHGG [SEQ ID NO 3174], the IC50 in test [2] and in test [3] was under 100 µM in each case.

With GGRAVHDCFIAQVGDLCDLFLHGG [SEQ ID NO 3178], the half-maximal inhibitory concentration (IC50) in test [2] and in test [3] was under 100 µM in each case.

For the molecule GGRYVHDCFAAQVGDLCDLFLHGG [SEQ ID NO 3170], the IC50 in test [2] and in test [3] was under 100 µM in each case.

Take GGAYVHDCFIGQVGDLCDLFLHGG [SEQ ID NO 3202]: the IC50 in test [2] and in test [3] was under 100 µM each time.

Turning to GGRYVHDCFIGQVGDLCDLFLHGG [SEQ ID NO 3171], the IC50 in test [2] and in test [3] was under 100 µM throughout.

Turning to GGAYVHDCFIAQVGDLCDLFLHGG [SEQ ID NO 3177], the IC50 in test [2] and in test [3] was under 100 µM throughout.

Consider GGRYVHDCFIAQVGDLCDAFLHGG [SEQ ID NO 3185], for which the IC50 in test [2] and in test [3] was under 100 µM throughout.

Regarding GGRYVHDCFIGAVGDLCDLFLHGG [SEQ ID NO 3200], the IC50 in test [2] and in test [3] was under 100 µM each time.

Turning to GGRYVHDCFIAAVGDLCDLFLHGG [SEQ ID NO 3172], the IC50 in test [2] and in test [3] was under 100 µM each time.

In the case of GGRYVHDCFIAQVGDLCDLFAHGG [SEQ ID NO 3183], the IC50 in test [2] and in test [3] was under 100 µM in each case.

With GGRYVHDCFIAQVGDLCDLFLAGG [SEQ ID NO 3182], the IC50 in test [2] and in test [3] was under 100 µM each time.

GGRYVADCFIAQVGDLCDLFLHGG [SEQ ID NO 3180]: the IC50 in test [2] and in test [3] was under 100 µM each time.

GGRYVHDCFIAQVGDLCALFLHGG [SEQ ID NO 3186]: the IC50 in test [2] and in test [3] was under 100 µM each time.

As to GGRYVHDCFIGQVGDLCALFLHGG [SEQ ID NO 3204], the IC50 in test [2] and in test [3] was under 100 µM throughout.

For the molecule GGRYAHDCFIAQVGDLCDLFLHGG [SEQ ID NO 3179], the IC50 in test [2] and in test [3] was under 100 µM each time.

In the case of GGRYVHDCFIAQVGDACDLFLHGG [SEQ ID NO 3176], the IC50 in test [2] and in test [3] was under 100 µM each time.

In the case of GGELLVDCFRVRVGELCDLFFGGG [SEQ ID NO 3128], the IC50 in test [2] and in test [3] was under 100 µM each time.

GGELLVDCFKVKVGELCDLFF [SEQ ID NO 3107]: the IC50 in test [2] and in test [3] was under 100 µM in each case.

Consider YSFKDCYFAKVGELCELFLW [SEQ ID NO 2875], for which, in test [1], the IC50 is under 100 µM.

For the molecule ELLVDCFKVKVGELCDLFFGGG [SEQ ID NO 3124], the IC50 in test [2] and in test [3] was under 100 µM each time.

For the molecule SYLCWLDHWGVICEED [SEQ ID NO 2877], in test [1], the IC50 was under 100 µM.

Take YWCSVWQLGSVCEMNNEETQ [SEQ ID NO 2880]: the IC50 in test [1] was under 100 µM.

As to GGELLVDCFKVKVGELCDLFFG [SEQ ID NO 3114], the IC50 in test [2] and in test [3] was under 100 µM in each case.

Take WPCWALGELCDLD [SEQ ID NO 2889]: in test [1], the IC50 was under 100 µM.

VHDCFIAQVGDLCDLF [SEQ ID NO 2887]: the IC50 in test [1] was under 100 µM.

For the molecule EFFHDCYVARVGELCDLFGW [SEQ ID NO 2876], the IC50 in test [1] was under 100 µM.

Consider GGWYPCWMAQLGELCDLDGGGGSGGVVCQDWEGVELCWQGG [IL-2Rβγc ligand having SEQ ID NO: 1263], for which the binding result in test [2] is reported as “binds”.

The molecule WPCWAALGELCDLD [SEQ ID NO 2888] came in with a concentration for half-maximal inhibition (IC50) in test [1] of under 100 µM.

As to GGRYVHDCFIAQVGDLCDLFLH [SEQ ID NO 3137], the IC50 in test [2] and in test [3] was under 100 µM each time.

Molecule EFWGWQCWQEPLGWSCDLEWMD [SEQ ID NO 2883] registered an IC50 in test [1] of under 100 µM.

EIFKDCLFANVGELCEIFPS [SEQ ID NO 2873] came in with a 50% inhibitory concentration (IC50) in test [1] of under 100 µM.
